Data as given in patent US10538782B2, “Plants having increased tolerance to herbicides” (BASF SE, priority 2015, dated 2020).
Changes are numbered by the printed parent chain. In names and notes the source's numbering stands.

B1: L88AL92A: mutated TriA (SEQ ID NO: 2) in which position 88 is Ala and position 92 is Ala (protein)
chain: MQTLSIQHGTLVTMDQYRRVLGDSWVHVQDGRIVALGVHAESVPPPADRVIDARGKVVLPGFINAHTHVNQILLRGGPSHGRQLYDWAFNVAYPGQKAMRPEDVAVAVRLYCAEAVRSGITTINDNADSAIYPGNIEAAMAVYGEVGVRVVYARMFFDRMDGRIQGYVDALKARSPQVELCSIMEETAVAKDRITALSDQYHGTAGGRISVWPAPAITPAVTVEGMRWAQAFARDRAVMWTLHMAESDHDERLHWMSPAEYMECYGLLDERLQVAHCVYFDRKDVRLLHRHNVKVASQVVSNAYLGSGVAPVPEMVERGMAVGIGTDDGNCNDSVNMIGDMKFMAHIHRAVHRDADVLTPEKILEMATIDGARSLGMDHEIGSIETGKRADLILLDLRHPQTTPHHHLAATIVFQAYGNEVDTVLIDGNVVMENRRLSFLPPERELAFLEEAQSRATAILQRANMVANPAWRSL
modifications: Pseudomonas
B2: N70N: TriA (melamine deaminase, SEQ ID NO: 2) with position 70 unchanged, apparently the wildtype reference (protein)
chain: B1 chain with A88L, A92L
modifications: Pseudomonas
B3: M155V: mutated TriA (SEQ ID NO: 2) in which position 155 is Val (protein)
chain: B1 chain with A88L, A92L, M155V
modifications: Pseudomonas
B4: N70A: mutated TriA (SEQ ID NO: 2) in which position 70 is Ala (protein)
chain: B1 chain with N70A, A88L, A92L
modifications: Pseudomonas
B5: L92V: mutated TriA (SEQ ID NO: 2) in which position 92 is Val (protein)
chain: B1 chain with A88L, A92V
modifications: Pseudomonas
B6: D128I: mutated TriA (SEQ ID NO: 2) in which position 128 is Ile (protein)
chain: B1 chain with A88L, A92L, D128I
modifications: Pseudomonas

system: Soybean cv Jake; assay: Herbicide tolerance test of transgenic soybean events, roots of cuttings treated via nutrient solution with the herbicide; assay type: in vivo; details: transgenic plants expressing the TriA variant, herbicide treatment; 0% no injury, 100% complete death; herbicide and species not given
Procedure: Binary vectors are generated as described in EXAMPLE 9. Soybean cv Jake are transformed as previously described by Siminszky et al., Phytochem Rev. 5:445-458 (2006). After regeneration, transformants are transplanted to soil in small pots, placed in growth chambers (16 hr day/8 hr night; 25° C. day/23° C. night; 65% relative humidity; 130-150 microE m-2 s-1) and subsequently tested for the presence of the T-DNA via Taqman analysis. After a few weeks, healthy, transgenic positive, single copy events are transplanted to larger pots and allowed to grow in the growth chamber. An optimal shoot for cutting is about 3-4 inches tall, with at least two nodes present. Each cutting is taken from the original transformant (mother plant) and dipped into rooting hormone powder (indole-3-butyric acid, IBA). The cutting is then placed in oasis wedges inside a bio-dome. The mother plant is taken to maturity in the greenhouse and harvested for seed. Wild type cuttings are also taken simultaneously to serve as negative controls. The cuttings are kept in the bio-dome for 5-7 days. 7-10 days after transfer to oasis wedges, the roots are treated via nutrient solution with the herbicide. Typical phytotox symptoms, like club shaped root, are evaluated 3-4 days after treatment. Less or no injury of transgenic plants compared to wildtype plants are interpreted as herbicide tolerance.

Molecule | Root injury [%]
B1 | 0%
B2 | 80%
B3 | 10%
B4 | 0%
B5 | 50%
B6 | 0%
